In the supplement of paper PMC10126150:
± gives the standard deviation of the averaged measurements.

System: ATP
Test: switch fluorescence ratio, 500 uM ATP over buffer (Cy3 cluster intensity, sum of 5 cycles each) (fold (ratio)); higher = stronger signal-on switching upon ATP binding; sequences stand for … in TCGTCGGCAGCGTCAGATGTGTATAAGAGACAGTTTTTTTTTTTTTTTTTTTTTTTTT…TC
Conditions: aptamer strand: ATP DNA aptamer (quencher-CACCTGGGGGAGTATTGCGGAGGAAGG + anchor), 100 nM annealed; ATP concentration: 500 uM
Summary of the method: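 Clusters carrying Cy3-labelled switching strands on a modified Illumina MiSeq flow-cell were annealed to 100 nM quencher-labelled ATP aptamer and imaged in selection buffer. They were imaged again after 15 min with 500 uM ATP at 22 °C, over five buffer/ATP cycles with NaOH stripping and re-annealing in between. For each cluster, the fluorescence ratio is the summed Cy3 intensity of the target cycles divided by that of the buffer cycles, averaged per switch-domain sequence. Clusters outside 100-1000 RFU were left out.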
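Also: ATP exposure 15 min at 22 °C before imaging.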

Row | Sequence | switch fluorescence ratio
1 | TAATAATTGG | 1.04 ± 0.057
2 | AGGGATACCG | 1.01 ± 0.066
3 | TCATTCGCAG | 3.73 ± 0.77
4 | TCGGTTCCCG | 0.981 ± 0.018
5 | TTTGCCTGAC | 1.57 ± 0.37
6 | TCTTAAGGGA | 0.979 ± 0.025
7 | GATTCCTCAT | 1.015 ± 0.0095
8 | TAGATTTGGG | 0.967 ± 0.0089
9 | TCGATTTTTT | 1.01 ± 0.028
10 | ATTAAAGTTA | 1.01 ± 0.013
11 | GGAGTTTGGG | 0.994 ± 0.039
12 | AGTAATAGGA | 1.03 ± 0.076
13 | AATATTTGGC | 1 ± 0.059
14 | AACTTTTACG | 1.074 ± 0.0069
15 | GGTGGGCTAA | 0.9827 ± 0.0057
16 | TACCACGTTG | 1 ± 0.009
17 | GATGCAGTGT | 1.05 ± 0.014
18 | TAACGAAAAA | 1.03 ± 0.062
19 | CTATGTGGTG | 1.02 ± 0.054
20 | CGGTTAGGAA | 1.01 ± 0.025
21 | CGTAGTTGG | 0.988 ± 0.049
22 | AGTATGATTT | 0.98 ± 0.027
23 | CGGGAATCGA | 1 ± 0.012

Row | Sequence | switch fluorescence ratio
24 | TTTGTGTCAC | 0.984 ± 0.034
25 | AGCTTCAGGG | 1.01 ± 0.037
26 | CATTGCGATC | 2.08 ± 0.3
27 | GCCGGGATTG | 0.976 ± 0.029
28 | ATTGGGGGGA | 0.982 ± 0.018
29 | GCCGGGTTGA | 1.03 ± 0.048
30 | CATGCGTAAA | 1.238 ± 0.0069
31 | GATTGAGTAG | 0.986 ± 0.016
32 | AGAATTTCAT | 1.01 ± 0.0045
33 | GGGTTGAACG | 0.967 ± 0.03
34 | ACATTTGACG | 1.05 ± 0.017
35 | AGTTGGCGGA | 0.999 ± 0.024
36 | AATTTCACTT | 1.003 ± 0.0047
37 | GGGTAGGTG | 1.13 ± 0.039
38 | TAAAGAGTCG | 1.02 ± 0.063
39 | ATGTTTATTT | 0.998 ± 0.041
40 | CTGAGAGATG | 0.9914 ± 0.0072
41 | TTTCCCCTTT | 1.08 ± 0.15
42 | TGATTGGGTG | 1.01 ± 0.054
43 | GGTTGAGGTC | 1 ± 0.023
44 | GGGGGATCAG | 0.992 ± 0.045
45 | TAACTATTT | 1 ± 0.046
46 | TCGCGGTGGC | 1 ± 0.029

Row | Sequence | switch fluorescence ratio
47 | GAGTCGAGAG | 0.99 ± 0.033
48 | ATGGGACAGT | 0.988 ± 0.05
49 | AGTGTGAAGG | 1.003 ± 0.0099
50 | ATGCATTGCG | 0.99777 ± 0.00081
51 | TAGGGTCTCT | 0.989 ± 0.012
52 | GGGGGGGAGA | 1.02 ± 0.029
53 | TAGTCTTAGG | 0.973 ± 0.049
54 | GGTTGTGGGT | 0.996 ± 0.015
55 | CGGGCGCGGA | 1.01 ± 0.048
56 | GGGAGCTCTG | 1 ± 0.014
57 | ATTGGTAGTT | 0.9687 ± 0.0067
58 | GTAAGCAAAG | 1.2 ± 0.081
59 | CGGTGGGACG | 1.02 ± 0.022
60 | ATGGGCTAGA | 0.9731 ± 0.0052
61 | TTGTTTTTGG | 0.987 ± 0.032
62 | TCGGGGGTTT | 1 ± 0.038
63 | CAGACGTCGA | 1.05 ± 0.066
64 | AATTACGTTT | 1.06 ± 0.062
65 | CATGCCAGTG | 1.049 ± 0.0013
66 | GGGGGGAAAA | 0.986 ± 0.025
67 | AGGGGGGGG | 1.03 ± 0.085
68 | GGTTTGTGGT | 1.03 ± 0.062
69 | CTAGCCCAGC | 1.02 ± 0.026

Row | Sequence | switch fluorescence ratio
70 | AAGTAGTCTT | 0.995 ± 0.014
71 | AAAATATGCT | 1 ± 0.049
72 | GGGTTTGAGG | 0.9806 ± 0.0072
73 | AGTGTTGGGG | 0.998 ± 0.017
74 | TTTTGGCGGT | 0.971 ± 0.055
75 | TTCCCAGCAG | 1.68 ± 0.65
76 | TAAGGAGTGG | 1.03 ± 0.073
77 | GGTGGATTTG | 0.981 ± 0.062
78 | CAAGGAGGGG | 1.017 ± 0.0074
79 | GGGGAAGAGA | 0.96964 ± 5.5e-05
80 | CTTGGGTTGG | 0.997 ± 0.028
81 | TTTGCATTAG | 1.11 ± 0.028
82 | TAGGGGGCAT | 1.01 ± 0.043
83 | GCGGACCCTC | 1.03 ± 0.05
84 | AATCTCCGAG | 1.09 ± 0.031
85 | TGATTGAGTT | 1 ± 0.016
86 | GTCTGGGCTG | 0.986 ± 0.014
87 | AAATGTGACG | 1.03 ± 0.028
88 | AGCTTTTTTG | 1.024 ± 0.0039
89 | TGATAACCGC | 1.1 ± 0.039
90 | ATACAGCACC | 1.45 ± 0.048
91 | AGTTAGTAGT | 0.981 ± 0.021
92 | CCCATGCTTA | 1.046 ± 0.003

Row | Sequence | switch fluorescence ratio
93 | GTGTGTCAGT | 0.964 ± 0.013
94 | TCTTCCTGGA | 1.08 ± 0.039
95 | GGCATAGGGG | 1.01 ± 0.026
96 | AAGGTTTGTT | 0.996 ± 0.049
97 | TGCAGATTTC | 0.9978 ± 0.0088
98 | GCTCTGGGTA | 1.05 ± 0.0082
99 | ATATTGGGGA | 1.01 ± 0.025
100 | GCAGGTGTTC | 1.14 ± 0.02
101 | GGGGGCAATG | 1.13 ± 0.064
102 | TTATGGCTGA | 0.988 ± 0.017
103 | TGTGGAAAAT | 1.03 ± 0.074
104 | AGACGAGGCT | 1.01 ± 0.021
105 | TTGACGTGTC | 1 ± 0.043
106 | GGTTTCAGCA | 1.01 ± 0.042
107 | TTTCATCCTG | 1.0331 ± 0.00038
108 | GCCCTTTTTT | 1 ± 0.046
109 | ATGGGTTAGC | 0.998 ± 0.011
110 | GTTTGTAAGC | 1.03 ± 0.01
111 | GATTTTTAAA | 1.02 ± 0.035
112 | GGTTGGGGAG | 0.985 ± 0.019
113 | GCTAGATGTA | 1.02 ± 0.015
114 | CGGGGGACTA | 0.985 ± 0.015
115 | GTGTTCTTGC | 0.9845 ± 0.0043

Row | Sequence | switch fluorescence ratio
116 | TGGGAATAAT | 1.03 ± 0.031
117 | ATACAGGGGG | 1.02 ± 0.067
118 | CGGGCGGGAT | 1.04 ± 0.029
119 | TTCCCGGTGT | 1.75 ± 0.041
120 | ATTAATCGCT | 0.9931 ± 0.0042
121 | GGAGGAAGGG | 0.983 ± 0.025
122 | AATTTAAGAA | 0.971 ± 0.013
123 | TAATTATGTG | 0.986 ± 0.024
124 | GAGGTATTGG | 1.01 ± 0.022
125 | CCTGAGTTC | 0.996 ± 0.031
126 | TGTATTAGTA | 0.949 ± 0.0089
127 | CGGACCGATG | 1.01 ± 0.0094
128 | GGCGAGTTAC | 1.021 ± 0.0012
129 | ACAATCGAGC | 0.988 ± 0.047
130 | TGTTTACAGC | 0.997 ± 0.027
131 | AGTATTTTG | 0.96 ± 0.013
132 | ATATAAATTT | 1 ± 0.025
133 | TAGAGGGGGG | 0.985 ± 0.038
134 | CGTTCAACTC | 1.04 ± 0.016
135 | GATGGGGAGG | 0.98 ± 0.032
136 | GTTGGGGAGC | 1.005 ± 0.0066
137 | CCTATTCCGG | 1.05 ± 0.03
138 | GTGTATGAGA | 1.002 ± 0.0083

Row | Sequence | switch fluorescence ratio
139 | CCGGGCCATC | 2.3 ± 0.038
140 | GGGAGCGCGG | 0.994 ± 0.013
141 | GCGATAAATT | 0.983 ± 0.045
142 | GGGATGTGCT | 0.957 ± 0.012
143 | ATTTAATTAC | 1.02 ± 0.0013
144 | TATGTGTGAT | 0.996 ± 0.013
145 | ATTTGATATG | 0.965 ± 0.031
146 | AAAGGGCTGC | 1.02 ± 0.13
147 | CAGGTGTCTG | 1.13 ± 0.032
148 | GGTAGATGGT | 1.01 ± 0.012
149 | TTGTGTTTCT | 0.9974 ± 0.0066
150 | GCGGTAAGGG | 1.016 ± 0.004
151 | ATGACGCCTG | 1 ± 0.022
152 | TTTGGCATTA | 1.09 ± 0.1
153 | ACGTGTAGGG | 1 ± 0.025
154 | CAGGAAGGGG | 1 ± 0.032
155 | CGTAGCTTTG | 1.086 ± 0.0028
156 | TGTTAGTCTG | 1.03 ± 0.032
157 | TTTTTGCTGA | 1.01 ± 0.032
